Assay [1] concerns the target T1, 0N3 R tau (human, UniProt P10636-2 1-352).
T1 construct: Used as recombinant protein (ELISA), overexpressed in cells (flow cytometry, Western blot, immunofluorescence) and native in iPSC derived neurons; also called 3 R tau (iPSC derived neurons express 0N3 R tau)
The assay can be described thus: ELISA, scFv-Ms-Fc titrated about 3 to 10000 ng/ml on coated tau isoform, OD 630 nm.

The target of assay [2] is T2, 1N3 R tau (human, UniProt P10636-4 1-381).
T2 construct: One of the six recombinantly expressed tau isoforms
T2 sequence (P10636 other isoform, or with tags, fused parts or gaps limits assumed): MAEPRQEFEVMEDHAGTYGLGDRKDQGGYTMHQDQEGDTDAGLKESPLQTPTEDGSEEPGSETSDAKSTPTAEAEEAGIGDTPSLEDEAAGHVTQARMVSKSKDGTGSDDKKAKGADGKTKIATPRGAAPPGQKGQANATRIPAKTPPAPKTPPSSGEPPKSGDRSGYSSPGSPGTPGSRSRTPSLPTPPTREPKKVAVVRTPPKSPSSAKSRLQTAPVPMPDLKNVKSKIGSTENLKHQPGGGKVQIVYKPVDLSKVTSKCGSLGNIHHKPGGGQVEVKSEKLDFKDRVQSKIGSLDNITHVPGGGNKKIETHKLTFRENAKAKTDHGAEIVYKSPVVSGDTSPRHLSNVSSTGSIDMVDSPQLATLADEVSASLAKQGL
The assay is described as above.

Assay [3] concerns the target T3, 2N3 R tau (human, UniProt P10636-5 1-410).
T3 construct: One of the six recombinantly expressed tau isoforms
The assay is described as above.

The next assay addresses T4, 0N4 R tau (human, UniProt P10636-6 1-383).
T4 construct: Used as recombinant protein (ELISA), overexpressed in cells and native in 10+16 MAPT mutant iPSC derived neurons; also called unmutated 0N4 R tau; 4 R tau (10+16 MAPT mutant neurons express 0N4 R tau)
The assay can be described thus: flow cytometry, scFv-Ms-Fc titrated about 3 to 10000 ng/ml on cells transfected with the tau isoform, mean fluorescence of transfected cells. (In general: A flow cytometer gives signals particle by particle.)

In assay [4] the target is T5, 1N4 R tau (human, UniProt P10636-7 1-412).
T5 construct: One of the six recombinantly expressed tau isoforms
T5 sequence (P10636 other isoform, or with tags, fused parts or gaps limits assumed): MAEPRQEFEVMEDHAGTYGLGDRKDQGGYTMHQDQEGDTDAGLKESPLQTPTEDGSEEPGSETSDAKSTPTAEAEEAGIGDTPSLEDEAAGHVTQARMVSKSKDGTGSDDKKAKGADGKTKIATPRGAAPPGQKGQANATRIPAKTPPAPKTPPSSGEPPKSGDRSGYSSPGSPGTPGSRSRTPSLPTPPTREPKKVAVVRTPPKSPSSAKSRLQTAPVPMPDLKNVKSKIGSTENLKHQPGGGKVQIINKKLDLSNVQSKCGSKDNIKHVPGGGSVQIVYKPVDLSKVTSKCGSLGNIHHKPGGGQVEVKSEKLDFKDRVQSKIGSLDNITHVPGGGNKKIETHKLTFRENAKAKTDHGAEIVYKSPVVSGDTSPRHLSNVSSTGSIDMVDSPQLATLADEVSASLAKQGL
The assay is described as above.

Assay [5] addresses T6, 2N4 R tau (human, UniProt P10636 2-758).
T6 construct: also called largest human isoform of tau
The description is as above.

In assay [6] the target is T6, 2N4 R tau. The experiment in a line: ELISA, antibody titrated about 3 to 10000 ng/ml on tau isoform coated directly onto the plate, OD 630 nm. (In general: An ELISA detects its analyte on a solid surface through an enzyme-linked reagent.)
The target in assay [7] is T1, 0N3 R tau. The experiment in a line: flow cytometry, antibody titrated about 3 to 10000 ng/ml on cells with intracellularly expressed tau isoform, geomean AF647 of transfected cells.
Assay [8] has as its target T2, 1N3 R tau. The assay is described as above.
The target in assay [9] is T3, 2N3 R tau. The description is as above.
Assay [10] concerns the target T5, 1N4 R tau. Described as above.
The target in assay [11] is T5, 1N4 R tau. The assay can be described thus: Western blot of lysates of cells overexpressing a single tau isoform, probed with the mouse IgG format.
Assay [12] concerns the target T6, 2N4 R tau. Described as above.
Assay [13] deals with T7, 0N4 R tau P301 mutated to alanine (human, UniProt P10636 1-758).
T7 construct: also called P301A
T7 sequence (P10636 other isoform, or with tags, fused parts or gaps limits assumed, stated change not applied): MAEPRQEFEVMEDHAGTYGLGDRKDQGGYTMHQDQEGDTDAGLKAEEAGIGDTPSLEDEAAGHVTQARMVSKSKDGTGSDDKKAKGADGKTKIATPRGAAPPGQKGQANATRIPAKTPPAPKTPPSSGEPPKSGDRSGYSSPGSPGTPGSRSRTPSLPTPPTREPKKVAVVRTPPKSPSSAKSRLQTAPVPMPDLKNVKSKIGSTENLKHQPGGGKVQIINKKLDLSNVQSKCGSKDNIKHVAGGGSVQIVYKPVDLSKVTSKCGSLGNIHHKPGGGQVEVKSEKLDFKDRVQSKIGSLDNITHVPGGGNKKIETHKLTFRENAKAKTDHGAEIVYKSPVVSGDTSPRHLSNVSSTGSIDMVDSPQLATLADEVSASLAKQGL
The experiment in a line: flow cytometry on fixed, permeabilised Expi293 cells expressing the mutant, 10 µg/ml VR7082. On the procedure: (§1) Upon receipt of the constructs, single constructs were transiently transfected into Expi293 cells (Thermo-Fisher) according to the instructions from the manufacturer. The cells were incubated at 38° C., shaking at 220 RPM, in a humidified 5% CO2 environment. Following a 48 hour incubation, the cells were harvested via centrifugation at 350 G(av) for 10 minutes. The cells were fixed and permeabilized with Invitrogens Fix and Perm kit, according to the instructions from the manufacturers. […] The cells were incubated on ice for 30 minutes before being washed in PBS+1% BSA and resuspended in 50 μl/well.
(§2) The cells were run on an IQue3 and tau containing cells were gated via the alexa-488 fluorescence from HT7 and tau binding assessed via alexa-647 staining. The data was normalised and expressed as a percentage of the binding signal observed for not-mutated tau.

The target in assay [14] is T8, 0N4 R tau G302 mutated to alanine (human, UniProt P10636 1-758).
T8 construct: also called G302A
T8 sequence (P10636 other isoform, or with tags, fused parts or gaps limits assumed, stated change not applied): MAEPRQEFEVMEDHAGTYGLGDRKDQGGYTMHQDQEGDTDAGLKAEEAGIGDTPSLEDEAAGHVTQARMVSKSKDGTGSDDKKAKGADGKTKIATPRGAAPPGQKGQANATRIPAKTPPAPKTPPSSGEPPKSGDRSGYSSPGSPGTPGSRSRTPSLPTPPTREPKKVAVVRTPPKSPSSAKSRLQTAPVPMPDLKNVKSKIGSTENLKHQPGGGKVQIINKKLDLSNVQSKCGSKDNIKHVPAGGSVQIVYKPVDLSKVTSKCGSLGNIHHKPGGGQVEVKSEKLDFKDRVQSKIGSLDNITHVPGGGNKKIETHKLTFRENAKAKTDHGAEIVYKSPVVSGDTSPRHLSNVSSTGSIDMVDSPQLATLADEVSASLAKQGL
The description is as above. On the procedure:
as §1, §2

The target of assay [15] is T1, 0N3 R tau. The experiment in a line: ELISA, antibody titrated about 3 to 10000 ng/ml on tau isoform coated directly onto the plate, OD 630 nm.
Assay [16] has as its target T2, 1N3 R tau. Described as above.
In assay [17] the target is T3, 2N3 R tau. Described as above.
Assay [18] concerns the target T5, 1N4 R tau. Described as above.
The target of assay [19] is T6, 2N4 R tau. The description is as above. This is another data set of the same source.
The target of assay [20] is T1, 0N3 R tau. The experiment in a line: Western blot of lysates of cells overexpressing a single tau isoform, probed with the mouse IgG format. A general note: In western blotting, separated proteins are transferred to a membrane and probed.
For assay [21], the target named is T2, 1N3 R tau. Described as above.
In assay [22] the target is T3, 2N3 R tau. The description is as above.
Assay [23] concerns the target T5, 1N4 R tau. The assay is described as above. This is another data set of the same source.
Assay [24] has as its target T6, 2N4 R tau. Described as above. This is another data set of the same source.

T1 sequence (P10636 other isoform, or with tags, fused parts or gaps limits assumed): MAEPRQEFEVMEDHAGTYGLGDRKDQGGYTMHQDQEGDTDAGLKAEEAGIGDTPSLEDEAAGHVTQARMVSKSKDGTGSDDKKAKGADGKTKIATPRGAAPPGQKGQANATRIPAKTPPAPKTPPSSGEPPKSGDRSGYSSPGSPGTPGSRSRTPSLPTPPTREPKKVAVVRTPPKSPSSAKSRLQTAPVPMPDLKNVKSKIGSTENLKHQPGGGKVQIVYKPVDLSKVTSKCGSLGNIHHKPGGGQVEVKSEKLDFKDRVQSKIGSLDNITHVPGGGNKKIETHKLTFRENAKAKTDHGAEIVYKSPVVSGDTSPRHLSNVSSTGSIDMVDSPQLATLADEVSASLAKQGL
T3 sequence (P10636 other isoform, or with tags, fused parts or gaps limits assumed): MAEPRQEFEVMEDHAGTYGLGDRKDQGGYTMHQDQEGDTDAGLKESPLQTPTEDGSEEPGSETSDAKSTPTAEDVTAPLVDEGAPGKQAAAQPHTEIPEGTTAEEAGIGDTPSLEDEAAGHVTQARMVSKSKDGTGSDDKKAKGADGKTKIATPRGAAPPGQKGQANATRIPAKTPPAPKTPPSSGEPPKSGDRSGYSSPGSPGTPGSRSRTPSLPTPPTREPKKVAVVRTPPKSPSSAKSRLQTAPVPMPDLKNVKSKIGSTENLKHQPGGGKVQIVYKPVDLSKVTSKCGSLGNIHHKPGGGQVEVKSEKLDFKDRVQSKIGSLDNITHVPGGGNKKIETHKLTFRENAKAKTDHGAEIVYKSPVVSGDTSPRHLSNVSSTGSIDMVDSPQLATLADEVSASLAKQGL
T6 sequence (P10636 other isoform, or with tags, fused parts or gaps limits assumed): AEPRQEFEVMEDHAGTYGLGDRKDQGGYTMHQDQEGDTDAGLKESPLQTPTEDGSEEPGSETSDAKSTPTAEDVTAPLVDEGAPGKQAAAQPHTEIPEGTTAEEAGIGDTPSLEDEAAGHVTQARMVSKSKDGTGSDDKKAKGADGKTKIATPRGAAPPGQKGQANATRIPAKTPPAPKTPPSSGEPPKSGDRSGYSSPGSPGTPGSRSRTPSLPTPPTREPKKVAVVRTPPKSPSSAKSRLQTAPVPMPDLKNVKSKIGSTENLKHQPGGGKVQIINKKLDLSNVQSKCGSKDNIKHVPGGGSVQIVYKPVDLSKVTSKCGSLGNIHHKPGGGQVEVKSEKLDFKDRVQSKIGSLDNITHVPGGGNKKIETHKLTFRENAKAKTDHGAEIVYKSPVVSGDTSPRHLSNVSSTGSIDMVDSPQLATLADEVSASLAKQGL
T4 sequence (P10636 other isoform, or with tags, fused parts or gaps limits assumed, form in doubt): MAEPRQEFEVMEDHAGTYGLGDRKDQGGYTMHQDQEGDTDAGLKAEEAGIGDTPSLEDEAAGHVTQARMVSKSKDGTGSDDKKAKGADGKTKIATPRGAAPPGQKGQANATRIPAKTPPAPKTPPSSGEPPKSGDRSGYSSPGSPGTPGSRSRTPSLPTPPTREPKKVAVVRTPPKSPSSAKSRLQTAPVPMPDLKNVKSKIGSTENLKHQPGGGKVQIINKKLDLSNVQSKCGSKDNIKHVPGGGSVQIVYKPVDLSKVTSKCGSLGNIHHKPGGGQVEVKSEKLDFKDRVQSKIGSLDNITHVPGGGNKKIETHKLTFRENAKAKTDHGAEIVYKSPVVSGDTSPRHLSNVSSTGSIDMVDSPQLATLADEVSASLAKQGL

B1: VR7082 scFv-Ms-Fc (Fc fusion)
scFv: MAQSVEESGGRLVTPGTPLTLTCTVSGIDLSNYAMIWVRQAPGEGLEYIGIISSTGNTFYATWAKGRFTISKTSTTVDLKITSPTAEDTATYFCARDTNSDSHYGWEAFNIWGPGTLVTVSSGGGGSGGGGSGGGGSGGGGSAVVLTQTPASVEAAVGGTVSINCQASEDIESYLAWYQQKPGQRPKLLIYRASTLASGVSSRFKGSGSGTEYTLTISGVECADAATYYCQEGYSIHVDNVFGGGTEVVVK
notes: also called scFv mouse Fc conversion of VR7082; not shown: mouse Fc
Turning to B1, the binding result with 0N3 R tau [1], in the assay with 1N3 R tau [2] and in the assay with 2N3 R tau [3] was “no binding (tested: 10000 ng/ml)” throughout. Besides, the “EC50 (read off the curve)” value with 0N4 R tau is approximately 0.6 µg/mL; in the assay with 1N4 R tau [4], approximately 0.8 µg/mL; with 2N4 R tau [5], approximately 0.9 µg/mL.

B2: VR7081 rabbit IgG (antibody, V domains shown)
VH: QSLEESGGRLVTPGTPLTLTCTVSGFSLSNYAMIWVRQAPGGGLEWIGTMGTNGRTYYASWAKGRFTISKTSTTMDLSMTSLTAEDTATYFCARDAGITYSTYYFNIWGPGTLVTVSS
VL: AQVLTQTPASVSAAVGGTVSISCQSSPSVLNTNDLSWFQQKPGQPPKVLIYGASTLASGVPSRFKGSGSGTQFTLTISDVQCDDAATYYCAGGYDVNIDIYGFGGGTEVVVK
notes: Cloned and tested as full-length rabbit IgG (kappa light chain); also called clone 14; 3 R-specific antibody
Turning to B2, the binding result with 2N4 R tau [6] and in the assay with 1N4 R tau [10] was “no binding (tested: 10000 ng/ml)” each time. Further, the figures for the “EC50 (read off the curve)” value with 0N3 R tau [7], in the assay with 1N3 R tau [8] and with 2N3 R tau [9] were approximately 0.7 µg/mL, approximately 1 µg/mL and approximately 0.9 µg/mL, respectively.

B3: VR7081 formatted as Mouse IgG (antibody, V domains shown)
VH: B2 VH
VL: B2 VL
notes: also called VR7081 mouse chimeric antibody
Turning to B3, the binding result with 1N4 R tau [11] and with 2N4 R tau [12] was “no binding” in each case.

B4: VR7082 rabbit IgG (antibody, V domains shown)
VH: QSVEESGGRLVTPGTPLTLTCTVSGIDLSNYAMIWVRQAPGEGLEYIGIISSTGNTFYATWAKGRFTISKTSTTVDLKITSPTAEDTATYFCARDTNSDSHYGWEAFNIWGPGTLVTVSS
VL: AVVLTQTPASVEAAVGGTVSINCQASEDIESYLAWYQQKPGQRPKLLIYRASTLASGVSSRFKGSGSGTEYTLTISGVECADAATYYCQEGYSIHVDNVFGGGTEVVVK
notes: Cloned and tested as full-length rabbit IgG (kappa light chain); also called clone 3; VR7082-RbIgG
In the case of B4, the binding result in [13] is given as “binds”; in assay [14] it was “binds”; with 0N3 R tau [15], “no binding (tested: 10000 ng/ml)”; in the assay with 1N3 R tau [16] it was “no binding (tested: 10000 ng/ml)”; with 2N3 R tau [17], “no binding (tested: 10000 ng/ml)”; in the assay with 1N4 R tau [18], “binds”. Further, the binding result with 2N4 R tau [19] was “binds”.

B5: VR7082 formatted as Mouse IgG (antibody, V domains shown)
VH: B4 VH
VL: B4 VL
notes: also called VR7082 mouse chimeric antibody
Take B5: the binding result is recorded as “no binding” in the assay with 0N3 R tau [20]; “no binding” with 1N3 R tau [21]; “no binding” in the assay with 2N3 R tau [22]; “binds” with 1N4 R tau [23]; “binds” with 2N4 R tau [24].

By EC50 (read off the curve) is commonly meant the midpoint of the concentration-response curve. A lower EC50 (read off the curve) goes with an effect from little substance.
